Here are results for one substance from US9259432.

As usually defined, the Kd is the constant that tells how readily two partners part at equilibrium. Low values mean tighter binding, high ones weaker binding.

The assay addresses S100B protein. The assay can be described thus: tryptophan fluorescence quenching, S100B titrated into 5.0 µM peptide, 0.1 mM CaCl2, 12° C.

Sequence of S100B protein (P02638 2-92): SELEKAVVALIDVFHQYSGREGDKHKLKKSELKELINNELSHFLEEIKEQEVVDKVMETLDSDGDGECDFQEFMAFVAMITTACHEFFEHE

Consider TRTK12 peptide, for which the Kd was determined as 211 nM. This counts as sub-micromolar.
